Measured values from the supplement of paper PMC9170038.

Columns and labels:
[1] = test system: K4 kissing-loop RNA reporter; experiment: apparent KD of K4 kissing-loop reporter; higher = weaker reporter binding; conditions: Eterna round: R107;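 also: bound reporter read as fluorescence of individual clusters on recovered sequencing chips by microscopy, with normalized cluster intensities fitted with a binding model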
Description: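 RNA-MaP round R107: designed RNA switches with theophylline, tryptophan, arginine or FMN aptamers are transcribed on-chip within common flanks. They are titrated with a labelled K4 kissing-loop RNA reporter in RNA-MaP buffer (100 mM Tris pH 7.5, 80 mM KCl, 4 mM MgCl2), without ligand or with the indicated ligand. Median apparent KD per design.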

MS2 coat protein = experiment: apparent KD of MS2 coat protein; designed switch direction (-1 OFF switch, 1 ON switch): -1; higher = weaker reporter binding
Outline: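 Transcription of designed RNA switches on Illumina chips was done by stalled E. coli RNA polymerase. SNAP-549-labelled MS2 coat protein was then titrated in doubling steps from 0.7 or 1.5 nM to 3 µM, with steps of 0.8–1.5 h at the lowest and 10–20 min at the highest concentration. The per-design median over clusters of curve-fitted normalised fluorescence is reported as apparent KD.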

[2] = input ligand: theophylline 20 uM
[3] = input ligand: tryptophan 2.4 mM
[4] = Eterna round: R95, input ligand: microRNA oligo, concentration not stated
[5] = input ligand: microRNA oligo, concentration not stated

Q: What does the source list for “UAACAGUCUACGGCCGCCACUGACAAUCGGCAAGCAACAUGUGGGUGCGUAGUGAUGUUACAUAUCAGGACCGGGUAAGACAAAU [theeternabot_sameState_KL_Trp_B_32]”?
A: apparent KD of K4 kissing-loop reporter ([1]; input ligand: FMN 200 uM): 327 nM; apparent KD of K4 kissing-loop reporter ([1]; input ligand: arginine 13.2 mM): 392 nM; apparent KD of K4 kissing-loop reporter ([1]; input ligand: none): 235 nM; apparent KD of K4 kissing-loop reporter [1, 2]: 345 nM; apparent KD of K4 kissing-loop reporter [1, 3]: 438 nM

Q: Which results are given for “GAUGGGUAUCAAGGAUAUGCCACUAUUGACUCCUAGAUGGUCAACCAUAUAAUGCGAGUGAUGUUCGCAGAAGGUGAUUCUUAGC [theeternabot_exclusion_KL_FMN_B_24]”?
A: apparent KD of K4 kissing-loop reporter ([1]; input ligand: FMN 200 uM): 92.3 nM; apparent KD of K4 kissing-loop reporter ([1]; input ligand: arginine 13.2 mM): 92.3 nM; apparent KD of K4 kissing-loop reporter ([1]; input ligand: none): 89.5 nM; apparent KD of K4 kissing-loop reporter [1, 2]: 89.7 nM; apparent KD of K4 kissing-loop reporter [1, 3]: 73.2 nM

Q: Which results are given for “GCUAUGGUAGGAAGGAGCGCGGACGAAAUUUAUCGAGUGAUGUUCGAAUAAUUAAAUAAAACGCAGGUAGGUCGCCUACUAUAGC [Arginine B K4 26]”?
A: apparent KD of K4 kissing-loop reporter ([1]; input ligand: FMN 200 uM): 101 nM; apparent KD of K4 kissing-loop reporter ([1]; input ligand: arginine 13.2 mM): 97.5 nM; apparent KD of K4 kissing-loop reporter ([1]; input ligand: none): 97.5 nM; apparent KD of K4 kissing-loop reporter [1, 2]: 95.5 nM; apparent KD of K4 kissing-loop reporter [1, 3]: 75.7 nM

Q: “GGGCCUGGGCCCGUAAGGGCCUGGGCCCGUUAGGAUAUGACGUGAUUCAGAAGGGAUGGGUGGAGUGAUGUUCCACCCGAGAGGG [#2 Same State - FMN A Attempt #24 (HarryS)]” was tested. Which “apparent KD of K4 kissing-loop reporter” value ([1]; input ligand: FMN 200 uM) did it give?
A: 111 nM

Q: What about the “apparent KD of K4 kissing-loop reporter” value ([1]; input ligand: arginine 13.2 mM) of the same sequence?
A: 97.7 nM

Q: What about the “apparent KD of K4 kissing-loop reporter” value ([1]; input ligand: none) of the same sequence?
A: 117 nM

Q: What about the “apparent KD of K4 kissing-loop reporter” value [1, 2] of the same sequence?
A: 88.5 nM

Q: And the “apparent KD of K4 kissing-loop reporter” value [1, 3]?
A: 96.7 nM

Q: Which “apparent KD of K4 kissing-loop reporter” value ([1]; input ligand: FMN 200 uM) does the source give for “UGAUAGGACAGAAGGAGCGGGAGUGAUGUUCCCAAUAGGAGGUCUAGCAAAGCUGGACCCUCCCAGGUAGGUCGCUGUCCUAUCU [ArgBX 3 #SwitchBubble #StaticStem]” here?
A: 102 nM

Q: What about the “apparent KD of K4 kissing-loop reporter” value ([1]; input ligand: arginine 13.2 mM) of the same sequence?
A: 115 nM

Q: And the “apparent KD of K4 kissing-loop reporter” value ([1]; input ligand: none)?
A: 96.1 nM

Q: What about the “apparent KD of K4 kissing-loop reporter” value [1, 2] of the same sequence?
A: 115 nM

Q: And the “apparent KD of K4 kissing-loop reporter” value [1, 3]?
A: 108 nM

Q: What does the source list for “UGUGUUUACCUGACUCAGUGAUGUUGAGAAGGAGCGUGCUAAUGCACAGGUAGGUCGCUCAACCUAAAUUCAGGUGAGCACUAAA”?
A: apparent KD of K4 kissing-loop reporter ([1]; input ligand: FMN 200 uM): 587 nM; apparent KD of K4 kissing-loop reporter ([1]; input ligand: arginine 13.2 mM): 250 nM; apparent KD of K4 kissing-loop reporter ([1]; input ligand: none): 560 nM; apparent KD of K4 kissing-loop reporter [1, 2]: 271 nM; apparent KD of K4 kissing-loop reporter [1, 3]: 478 nM

Q: “UGGAGUUGACGAAAAGUCAACUCCUGAGAUACCAGUGACGAAAGUCACCCUUGGCAGCUCACUGGCAGUGAUGUUGCUAUAUAAA [KL-SSTheo-A3]” was tested. Which “apparent KD of K4 kissing-loop reporter” value ([1]; input ligand: FMN 200 uM) did it give?
A: 85.5 nM

Q: What about the “apparent KD of K4 kissing-loop reporter” value ([1]; input ligand: arginine 13.2 mM) of the same sequence?
A: 68.9 nM

Q: And the “apparent KD of K4 kissing-loop reporter” value ([1]; input ligand: none)?
A: 95.3 nM

Q: What about the “apparent KD of K4 kissing-loop reporter” value [1, 2] of the same sequence?
A: 211 nM

Q: And the “apparent KD of K4 kissing-loop reporter” value [1, 3]?
A: 101 nM

Q: What does the source list for “AAGUGAUGUUGUAGUGAUGUUGUGAUGUUGCAGGAUAUAUAGUGAUGUAGAAGGGUAAGUACUGUUUUUUUUUUUGAGUGAUGUU [ookooyzrmullin]”?
A: apparent KD of K4 kissing-loop reporter ([1]; input ligand: FMN 200 uM): 101 nM; apparent KD of K4 kissing-loop reporter ([1]; input ligand: arginine 13.2 mM): 41.7 nM; apparent KD of K4 kissing-loop reporter ([1]; input ligand: none): 78.4 nM; apparent KD of K4 kissing-loop reporter [1, 2]: 67.5 nM; apparent KD of K4 kissing-loop reporter [1, 3]: 88.7 nM

Q: Which “apparent KD of MS2 coat protein” value (MS2 coat protein; [4]) does the source give for “GUGUGCAGAGGAUAUACAGAGGAAAAGAAAAGAGAAGGGAGACAUGAGGAUCACCCAUGUAGAAGGCUGAGUGU [Excluse me!! 20 - Jieux - Exclusion 2] (puzzle: Exclusion 2)” here?
A: 63.4 nM

Q: For “CUUGUUUAUGUAGGAUAUACAUGAGGAUCACCCAUAGAAGGACAUGAGGAUCACCCAUGUAUUGCGGUCUGCGUUCAGAUCGCA [salish99_ExNG1_r04_101] (Eterna round: R96, puzzle: Exclusion NG 1)”, which “apparent KD of MS2 coat protein” value (MS2 coat protein; input ligand: FMN 200 uM) is on record?
A: 337 nM

Q: What about the “apparent KD of MS2 coat protein” value (MS2 coat protein; [5]) of the same sequence?
A: 298 nM

Q: What about the “apparent KD of MS2 coat protein” value (MS2 coat protein; input ligand: none) of the same sequence?
A: 335 nM

Q: What does the source list for “CCGGUUGGCGCAGGAUAUACAUGAGGAUCACCCAUGUUCAUGAGGAUCACCCAUGAGUUUUUGUUGUAGAAGGGUGGCCCGGCC [A second MS2 with the first and last base exchanged (less A)] (Eterna round: R96, puzzle: Exclusion NG 2)”?
A: apparent KD of MS2 coat protein (MS2 coat protein; input ligand: FMN 200 uM): 23.8 nM; apparent KD of MS2 coat protein (MS2 coat protein; [5]): 15 nM; apparent KD of MS2 coat protein (MS2 coat protein; input ligand: none): 29.4 nM

Q: With “CACCGUUACAUAGGAUAUGUUACAUGAGGAUCACCCAUGUAAUAAAUGAGAAUUUCGAAUGUAAUACAGAAGGAUGGAAUCGGC [Ostracism 71 - Jieux - Exclusion NG 2] (Eterna round: R96, puzzle: Exclusion NG 2)” as the sequence, how does the “apparent KD of MS2 coat protein” value (MS2 coat protein; input ligand: FMN 200 uM) read?
A: 28.7 nM

Q: And the “apparent KD of MS2 coat protein” value (MS2 coat protein; [5])?
A: 16.6 nM

Q: What about the “apparent KD of MS2 coat protein” value (MS2 coat protein; input ligand: none) of the same sequence?
A: 17.7 nM

Q: For “CGAUGUUAUGUCAGGAUAUGCGUUGCGAAAGCGAUGCAGAAGGGACAUGAGGAUCACCCAUGUCCUAACCAUCG [Omei A 7] (puzzle: Brourd's mod of Exclusion 4)”, which “apparent KD of MS2 coat protein” value (MS2 coat protein; [4]) is on record?
A: 10.7 nM

Q: For “GACGCUAAAGGAUAUACAUGAGGAUCACCCAUGUUGAGGAAGGUUAGAUGAGGAGUAAGUAGAAGGUUAGGCGA [JR_Exclu3_Sub092] (puzzle: Exclusion 3)”, which “apparent KD of MS2 coat protein” value (MS2 coat protein; [4]) is on record?
A: 33.6 nM

Q: With “AGCUAUGCCGAGGAUAUCGGCUGGAUAAGACACUGAGAAGGCGGGACAUGAGGAUCACCCAUGUGAACCUAUAU [Eternabot (L1) Solution 30] (Eterna round: R97, puzzle: Exclusion 6)” as the sequence, how does the “apparent KD of MS2 coat protein” value (MS2 coat protein; input ligand: FMN 200 uM) read?
A: 27.3 nM

Q: What about the “apparent KD of MS2 coat protein” value (MS2 coat protein; input ligand: none) of the same sequence?
A: 30.2 nM

Q: Which “apparent KD of MS2 coat protein” value (MS2 coat protein; input ligand: FMN 200 uM) does the source give for “ACCUCACAUGAGGAUCACCCAUGUCAGGAUAUCUAUUAUUGCAGCAUUCCUGUCGCUGAGAGAAGGGACAUUAA [EX1 #28] (Eterna round: R97, puzzle: Exclusion 1)” here?
A: 29.4 nM

Q: What about the “apparent KD of MS2 coat protein” value (MS2 coat protein; input ligand: none) of the same sequence?
A: 23.7 nM

Q: “GGUGCGUUUGUGAGGAUAUGCUGGUCCUUGGUUCGGCAGAAGGCACAUGAGGAUCACCCAUGUGGUGUCGCACC [salish99_Bmod_Ex4_049] (puzzle: Brourd's mod of Exclusion 4)” was tested. Which “apparent KD of MS2 coat protein” value (MS2 coat protein; [4]) did it give?
A: 65.9 nM

Q: Which “apparent KD of MS2 coat protein” value (MS2 coat protein; input ligand: FMN 200 uM) does the source give for “AUCCGUAGGCGCACCUCACACAUGAGGAUCACCCAUGUGCCCUACAAUCGCAAGCUGUGCUCGUUGCUGGUCCCUAC [Eternabot (L1) Solution 16] (Eterna round: R97, puzzle: Sensor, turn-off variant 1)” here?
A: 45.3 nM

Q: And the “apparent KD of MS2 coat protein” value (MS2 coat protein; input ligand: none)?
A: 48.5 nM

Q: Which results are given for “CACGUACAGCAAGGAUAUCCAAAUGUUGAGCAUGGCCUAUCCAUACAUGAGGAUCACCCAUGUUCGGAGAAGGUGCAUGUAUCU [Enteinte] (Eterna round: R96, puzzle: Exclusion NG 2)”?
A: apparent KD of MS2 coat protein (MS2 coat protein; input ligand: FMN 200 uM): 11.2 nM; apparent KD of MS2 coat protein (MS2 coat protein; [5]): 9.96 nM; apparent KD of MS2 coat protein (MS2 coat protein; input ligand: none): 12.8 nM

Q: With “GUGUACAGAGGAUAUGCACGAGUAGUUACGAAAGUAACUGCACAUGAGGAUCACCCAUGUAGAAGGCUGUACAC [Dot plot directed v4] (puzzle: Exclusion 2)” as the sequence, how does the “apparent KD of MS2 coat protein” value (MS2 coat protein; [4]) read?
A: 15.4 nM

Q: How did the “apparent KD of MS2 coat protein” value (MS2 coat protein; input ligand: FMN 200 uM) turn out when “UAUUAACAAGCUAGGUCCCACAUGAGGAUCACCCAUGUGCUCGUCUUAUAAGGUACUGUGACGAAAGUCACGGUACC [Sensor 3, v1 - 79] (Eterna round: R96, puzzle: Sensor v3, turn-off variant 1)” was run?
A: 30.2 nM

Q: What about the “apparent KD of MS2 coat protein” value (MS2 coat protein; [5]) of the same sequence?
A: 464 nM

Q: What about the “apparent KD of MS2 coat protein” value (MS2 coat protein; input ligand: none) of the same sequence?
A: 38.4 nM

Q: How did the “apparent KD of MS2 coat protein” value (MS2 coat protein; input ligand: FMN 200 uM) turn out when “GUUUUGAGACGGAGAUCCGACAUGAGGAUCACCCAUGUCUCACAAGCUUUUUGCUCGUCUUAUACUCCUCUGUUCUC [Elimod 44 - Jieux - Sensor, turn-off variant 1] (Eterna round: R97, puzzle: Sensor, turn-off variant 1)” was run?
A: 17 nM

Q: What about the “apparent KD of MS2 coat protein” value (MS2 coat protein; input ligand: none) of the same sequence?
A: 17.6 nM

Q: Which results are given for “CAGUACUGAGGAUAUACAUGAGGAUCACCCAUGUGUUCCAGGUAGGAAACUAGCAAAAGUAGAAGGCAGUACUG [salish99_ex3_r3_078] (puzzle: Exclusion 3)”?
A: apparent KD of MS2 coat protein (MS2 coat protein; Eterna round: R95, input ligand: FMN 200 uM): 99.7 nM; apparent KD of MS2 coat protein (MS2 coat protein; [4]): 20.2 nM; apparent KD of MS2 coat protein (MS2 coat protein; Eterna round: R95, input ligand: none): 20.4 nM
